Laboratory results from PMC11019930, “DnaK duplication and specialization in bacteria correlates with increased proteome complexity” (mSystems, 2024).

Tests used:
[1] = target: N2β1α1C1, recombinant purified (the MxDnaK1 chimera with the MxDnaK2 NBD) (Myxococcus xanthus DK1622); experiment: SDS-PAGE of the purified protein (monomer and dimer bands); purified MxDnaKs and chimeras on SDS-PAGE, without DTT treatment; monomer (1×) and dimer (2×) bands
[2] = target: the molecule itself; experiment: as above

Row | Molecule | oligomer state on SDS-PAGE (subunits per band) [1] | stoichiometry N [2]
1 | N2β1α1C1, recombinant purified (the MxDnaK1 chimera with the MxDnaK2 NBD) | 2 | –
2 | His6-MxDnaK2 (natural protein, Myxococcus xanthus DK1622, UniProt P95334 1-607, looked up, MxDnaK2 (MXAN_6671) of Myxococcus xanthus DK1622; the gene was amplified from genomic DNA and cloned into pET28a; His6-MxDnaK2 printed as 65.3 kDa; also called MxDnaK2, recombinant purified; source: E. coli BL21 (DE3), purified (Ni-NTA); not shown: His6, N-terminal, kept) MGKVIGIDLGTTNSCVAVMEGGEPVVIPNSEGSRTTPSMVGFTDSGERLVGQIAKRQAITNPENTVFAAKRLIGRKFDSPEGKKAIGVSPFKVASSPNGDAWVEIRGKGYSPPEVSAIVLMKMKQTAEDYLGEQVSEAVITVPAYFNDSQRQATKDAGRIAGLSVLRIINEPTAAALAYGLDKVQDGGTERIAVYDLGGGTFDISILELNAGVFEVKSTNGDTFLGGEDFDQRLIDYLAKRFAESNNGLDLRKDRMALQRLKEAAERAKHELSSAPETEVNLPFITADASGPKHLTETVDRATFEALVTDLIDRTIEPCRIALKDAGIPAQQINQVLLVGGMTRMPRVQQKVKEFFGREPHKGINPDEVVAVGAAIQGGVLKGEVKDVLLLDVTPLSLGVETAGGVFTKIIDKNTTIPCKKSQVFSTAVDNQPLVSVHVLQGEREMAADNKTLARFELVGIPPAPRGVPQIEVSFDIDANGIVHVSAKDLGTGKVQQVRVVSNSGLSEAEIQAMISDAQSHASDDKKKKELAELRNNADGLIYTTEKSLEEYASLLSEKDREEIKADLERLKEVLNTSDAAVLKESFQRLEGSAYRIADAIYTGQAS | – | 2
